The values below are quoted from earlier work in article PMC3078936.

For orientation: Kd means the equilibrium constant for the complex coming apart.

The target of the data set is Bmf (Homo sapiens). Conditions: cited from earlier work.

Sequence of DYNLL1 (P63167 whole entry): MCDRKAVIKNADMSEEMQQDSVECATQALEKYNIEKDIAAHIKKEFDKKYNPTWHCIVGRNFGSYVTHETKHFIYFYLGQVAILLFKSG

DYNLL1 (from UniProt P63167): the Kd was 750 nM.
